These results are taken from publication PMC3281842 (2012).

Square brackets hold non-standard residues; d marks the D form. Ends that are not written are not given here. Arg(Me2a) = CN(C)C(=N)NCCC[C@H](N)C(=O)O

In the assay the target is TDRD3 (aa 520–633) (human, UniProt Q9H7E2 520-633). Briefly: ITC.

For TG[Arg(Me2a)]ARARA [PIWIL1_R4me2a peptide (TGRme2aARARA)], the Kd (as a rule, the constant that tells how readily two partners part at equilibrium) is > 500 µM.
